Publication PMC9700037

Experiments:
[1] = biological target: T1, biotin-MBP-NLRP1 wt (Avi-MBP-tev-NLRP1) (human), Q9C000; test: SPR; 20-fold excess Val-boroPro (VbP); NLRP1 multimer; settings: enzyme; chains chain; biotin (on the Avi tag, BirA co-expressed); remark: other sources report otherwise
T1 chain: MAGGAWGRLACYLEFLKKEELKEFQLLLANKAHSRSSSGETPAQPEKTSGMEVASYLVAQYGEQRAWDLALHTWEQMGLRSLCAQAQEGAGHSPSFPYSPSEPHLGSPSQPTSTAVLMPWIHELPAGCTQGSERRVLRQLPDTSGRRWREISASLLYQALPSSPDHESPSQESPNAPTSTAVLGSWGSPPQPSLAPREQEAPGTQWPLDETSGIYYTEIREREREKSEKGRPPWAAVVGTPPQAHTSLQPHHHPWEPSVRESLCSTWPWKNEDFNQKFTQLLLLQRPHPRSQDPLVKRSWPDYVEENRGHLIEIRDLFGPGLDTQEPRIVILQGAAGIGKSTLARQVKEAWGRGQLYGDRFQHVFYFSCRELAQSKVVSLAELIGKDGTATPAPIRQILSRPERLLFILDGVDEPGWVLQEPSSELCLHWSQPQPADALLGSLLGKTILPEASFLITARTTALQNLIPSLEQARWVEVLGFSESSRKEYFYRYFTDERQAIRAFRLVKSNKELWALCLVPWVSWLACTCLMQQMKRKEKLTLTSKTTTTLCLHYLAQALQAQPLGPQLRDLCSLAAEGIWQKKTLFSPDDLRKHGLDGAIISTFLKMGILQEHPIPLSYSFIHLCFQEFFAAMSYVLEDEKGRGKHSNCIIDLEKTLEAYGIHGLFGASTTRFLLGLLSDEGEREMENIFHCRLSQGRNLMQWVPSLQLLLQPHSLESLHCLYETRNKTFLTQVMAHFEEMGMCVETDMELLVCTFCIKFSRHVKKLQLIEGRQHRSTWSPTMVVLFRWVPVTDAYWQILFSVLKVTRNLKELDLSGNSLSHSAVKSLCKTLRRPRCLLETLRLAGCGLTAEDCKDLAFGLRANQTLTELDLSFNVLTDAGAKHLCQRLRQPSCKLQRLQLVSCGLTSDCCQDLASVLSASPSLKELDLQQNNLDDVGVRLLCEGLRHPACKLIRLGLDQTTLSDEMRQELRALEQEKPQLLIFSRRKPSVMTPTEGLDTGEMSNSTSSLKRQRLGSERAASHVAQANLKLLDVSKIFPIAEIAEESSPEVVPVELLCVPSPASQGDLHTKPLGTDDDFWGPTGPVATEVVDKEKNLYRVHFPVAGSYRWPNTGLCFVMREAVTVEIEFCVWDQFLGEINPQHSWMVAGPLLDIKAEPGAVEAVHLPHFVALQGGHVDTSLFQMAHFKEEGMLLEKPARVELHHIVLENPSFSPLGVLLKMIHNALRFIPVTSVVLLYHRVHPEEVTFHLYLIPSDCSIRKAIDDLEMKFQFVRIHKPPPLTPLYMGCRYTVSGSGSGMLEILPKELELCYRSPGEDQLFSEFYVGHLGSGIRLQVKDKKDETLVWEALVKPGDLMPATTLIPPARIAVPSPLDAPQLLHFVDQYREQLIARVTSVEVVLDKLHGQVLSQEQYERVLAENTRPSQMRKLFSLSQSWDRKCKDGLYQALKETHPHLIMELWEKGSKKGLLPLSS

[2] = biological target: T1, biotin-MBP-NLRP1 wt (Avi-MBP-tev-NLRP1) …; test: SPR; NLRP1 void (high MW) fraction; settings: enzyme; chains chain; biotin (on the Avi tag, BirA co-expressed); remark: other sources report otherwise
His6-tev-DPP9, Q86TI2 [3] = test: SEC-MALS; co-eluting SEC fractions of FIIND and DPP9 co-expressed in Sf9 WITHOUT the free UPA construct, co-purified; 0.5-1.0 mg/ml, Superose 6 increase (10/300) GL, buffer A without glycerol; settings: remark: other sources report otherwise
His6-tev-DPP9, Q86TI2 [4] = test: SEC-MALS; co-eluting SEC fractions of FIIND, DPP9 and free UPA co-expressed in Sf9 and co-purified; 0.5-1.0 mg/ml, Superose 6 increase (10/300) GL, buffer A without glycerol; settings: remark: other sources report otherwise
[5] = biological target: T2, Biotin-FLAG-NLRP1 wt (human), Q9C000; test: SPR; Biotin-FLAG-NLRP1 (from HEK293T) or biotin-MBP-NLRP1 (from Sf9, multimer fraction) or biotin-MBP immobilised on a streptavidin chip; DPP9 injected at 78-2500 nM, single-cycle kinetics, 10 mM Hepes pH 7.5, 150 mM NaCl, 0.5 mM TCEP, 0.05% Tween-20; settings: remark: other sources report otherwise
T2 chain: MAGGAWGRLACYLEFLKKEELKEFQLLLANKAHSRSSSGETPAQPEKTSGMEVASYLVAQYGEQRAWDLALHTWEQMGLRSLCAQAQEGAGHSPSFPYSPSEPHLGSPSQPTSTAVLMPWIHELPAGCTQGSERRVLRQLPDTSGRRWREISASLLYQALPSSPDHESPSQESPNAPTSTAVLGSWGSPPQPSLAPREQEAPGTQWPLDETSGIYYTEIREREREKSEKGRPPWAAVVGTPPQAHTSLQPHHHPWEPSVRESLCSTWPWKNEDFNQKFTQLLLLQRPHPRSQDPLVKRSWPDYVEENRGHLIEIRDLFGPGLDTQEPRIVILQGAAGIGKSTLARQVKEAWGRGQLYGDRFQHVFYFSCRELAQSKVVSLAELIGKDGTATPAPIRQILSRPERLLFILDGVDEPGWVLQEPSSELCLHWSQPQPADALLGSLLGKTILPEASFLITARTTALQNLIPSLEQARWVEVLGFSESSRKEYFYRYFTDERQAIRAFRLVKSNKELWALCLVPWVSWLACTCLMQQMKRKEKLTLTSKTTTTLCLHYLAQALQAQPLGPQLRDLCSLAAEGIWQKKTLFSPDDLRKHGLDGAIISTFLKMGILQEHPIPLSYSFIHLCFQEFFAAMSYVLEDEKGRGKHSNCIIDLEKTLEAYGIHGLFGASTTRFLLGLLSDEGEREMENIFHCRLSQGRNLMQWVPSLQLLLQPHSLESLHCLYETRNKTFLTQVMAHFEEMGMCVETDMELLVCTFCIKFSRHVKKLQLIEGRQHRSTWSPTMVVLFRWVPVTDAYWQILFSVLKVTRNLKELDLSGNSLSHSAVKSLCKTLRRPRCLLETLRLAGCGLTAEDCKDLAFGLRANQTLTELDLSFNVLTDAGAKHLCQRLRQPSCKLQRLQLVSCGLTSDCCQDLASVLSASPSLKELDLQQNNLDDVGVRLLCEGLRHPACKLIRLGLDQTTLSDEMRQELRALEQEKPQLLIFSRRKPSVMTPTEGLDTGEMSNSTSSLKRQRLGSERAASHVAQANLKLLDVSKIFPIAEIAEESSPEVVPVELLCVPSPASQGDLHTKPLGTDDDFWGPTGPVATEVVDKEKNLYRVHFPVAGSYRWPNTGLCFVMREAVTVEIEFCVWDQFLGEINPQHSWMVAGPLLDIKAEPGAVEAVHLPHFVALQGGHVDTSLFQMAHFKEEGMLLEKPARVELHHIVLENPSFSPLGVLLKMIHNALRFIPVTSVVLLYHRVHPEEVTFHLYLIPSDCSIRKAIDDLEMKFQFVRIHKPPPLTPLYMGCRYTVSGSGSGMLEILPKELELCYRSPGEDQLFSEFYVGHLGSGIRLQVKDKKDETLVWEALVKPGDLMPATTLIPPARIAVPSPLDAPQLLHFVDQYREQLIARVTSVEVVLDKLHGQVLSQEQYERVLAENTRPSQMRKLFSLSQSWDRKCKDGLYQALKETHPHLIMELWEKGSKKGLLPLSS

[6] = biological target: T1, biotin-MBP-NLRP1 wt (Avi-MBP-tev-NLRP1) …; test: as above; settings: remark: other sources report otherwise

B1: His6-tev-DPP9, Q86TI2 1-863 (protein)
chain: MATTGTPTADRGDAAATDDPAARFQVQKHSWDGLRSIIHGSRKYSGLIVNKAPHDFQFVQKTDESGPHSHRLYYLGMPYGSRENSLLYSEIPKKVRKEALLLLSWKQMLDHFQATPHHGVYSREEELLRERKRLGVFGITSYDFHSESGLFLFQASNSLFHCRDGGKNGFMVSPMKPLEIKTQCSGPRMDPKICPADPAFFSFINNSDLWVANIETGEERRLTFCHQGLSNVLDDPKSAGVATFVIQEEFDRFTGYWWCPTASWEGSEGLKTLRILYEEVDESEVEVIHVPSPALEERKTDSYRYPRTGSKNPKIALKLAEFQTDSQGKIVSTQEKELVQPFSSLFPKVEYIARAGWTRDGKYAWAMFLDRPQQWLQLVLLPPALFIPSTENEEQRLASARAVPRNVQPYVVYEEVTNVWINVHDIFYPFPQSEGEDELCFLRANECKTGFCHLYKVTAVLKSQGYDWSEPFSPGEDEFKCPIKEEIALTSGEWEVLARHGSKIWVNEETKLVYFQGTKDTPLEHHLYVVSYEAAGEIVRLTTPGFSHSCSMSQNFDMFVSHYSSVSTPPCVHVYKLSGPDDDPLHKQPRFWASMMEAASCPPDYVPPEIFHFHTRSDVRLYGMIYKPHALQPGKKHPTVLFVYGGPQVQLVNNSFKGIKYLRLNTLASLGYAVVVIDGRGSCQRGLRFEGALKNQMGQVEIEDQVEGLQFVAEKYGFIDLSRVAIHGWSYGGFLSLMGLIHKPQVFKVAIAGAPVTVWMAYDTGYTERYMDVPENNQHGYEAGSVALHVEKLPNEPNRLLILHGFLDENVHFFHTNFLVSQLIRAGKPYQLQIYPNERHSIRCPESGEHYEVTLLHFLQEYL
Question: With B1 as the binder, how does the Kd [1] read?
Answer: The Kd was 168 nM.

Question: What about the Kd [2] of the same binder?
Answer: Its Kd is 173 nM.

Question: What about the stoichiometry N (His6-tev-DPP9, Q86TI2 [3]) of the same binder?
Answer: Its stoichiometry N is 2.

Question: And the stoichiometry N (His6-tev-DPP9, Q86TI2 [4])?
Answer: The stoichiometry N was 2.

Question: What about the Kd [5] of the same binder?
Answer: Its Kd is 155 nM.

Question: And the Kd [6]?
Answer: The Kd was 140 nM.
